This assay deals with concanavalin A (Canavalia ensiformis, UniProt P02866). The experiment in a line: ITC.

Ends that are not written are not given here.

Sequence of concanavalin A (P02866 whole entry, looked up): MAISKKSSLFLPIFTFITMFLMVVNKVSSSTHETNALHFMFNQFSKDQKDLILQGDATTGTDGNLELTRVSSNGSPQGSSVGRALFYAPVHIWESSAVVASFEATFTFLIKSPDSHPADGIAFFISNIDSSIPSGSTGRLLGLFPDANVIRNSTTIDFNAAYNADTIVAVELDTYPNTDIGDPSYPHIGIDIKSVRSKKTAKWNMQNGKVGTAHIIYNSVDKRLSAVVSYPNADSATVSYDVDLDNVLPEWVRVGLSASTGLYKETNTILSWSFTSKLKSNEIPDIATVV

Consider Man-WYDLFDNINS [Man-WYDLFDNINS (L30)], for which the Kd is 4.3 µM.

Man-WYDLF [Man-WYDLF (L37)] showed a Kd of 4.6 µM.

In general, Kd refers to the constant that tells how readily two partners part at equilibrium. A low value points to a tighter complex.
